Source: paper PMC6643046

Experiments:
[1] = biological target: His-eYFP-PRDM9^Cst (full-length PRDM9^Cst with KRAB, SSXRD, PR/SET and ZnF domains) (Mus musculus castaneus (CAST/EiJ strain)); assay: native gel or EMSA; multimer assay II: construct bound to a 75-bp DNA (Hlx1 for PRDM9^Cst, Pbx1 for PRDM9^Dom2), native gel; MW of the lower shift read against a ladder of free DNA (75-740 bp) and divided by the monomer's MW; four replicates; crude bacterial lysates or in vitro expressed protein
[2] = biological target: His-MBP-eYFP-PRDM9^Dom2 ZnF (Mus musculus domesticus (C57BL/6J strain)); assay: as above
[3] = biological target: His-MBP-eYFP-PRDM9^Cst ZnF (Mus musculus castaneus (CAST/EiJ strain)); assay: as above
[4] = biological target: His-eYFP-PRDM9^Cst ZnF (Mus musculus castaneus (CAST/EiJ strain)); assay: native gel or EMSA; multimer assay I: construct bound to single-Hlx1 and tandem-Hlx1 DNA fragments of rising length, native 5% polyacrylamide gel; MW of the second complex (supershift) read from the regression of the lower shifts and divided by the monomer's MW; crude bacterial lysates or in vitro expressed protein
[5] = biological target: His-eYFP-PRDM9^Cst ZnF2-11 (Mus musculus castaneus (CAST/EiJ strain)); assay: native gel or EMSA; multimer assay II: construct bound to a 75-bp DNA (Hlx1 for PRDM9^Cst, Pbx1 for PRDM9^Dom2), native gel; MW of the lower shift read against a ladder of free DNA (75-740 bp) and divided by the monomer's MW; four replicates; crude bacterial lysates or in vitro expressed protein
[6] = biological target: His-eYFP-PRDM9^Cst ZnF2-11 (Mus musculus castaneus (CAST/EiJ strain)); assay: native gel or EMSA; multimer assay I: construct bound to single-Hlx1 and tandem-Hlx1 DNA fragments of rising length, native 5% polyacrylamide gel; MW of the second complex (supershift) read from the regression of the lower shifts and divided by the monomer's MW; crude bacterial lysates or in vitro expressed protein
[7] = biological target: His-PRDM9^Cst ZnF (Mus musculus castaneus (CAST/EiJ strain)); assay: as above
[8] = biological target: His-PRDM9^Cst ZnF1-11 (Mus musculus castaneus (CAST/EiJ strain)); assay: as above
[9] = biological target: His-Halo-PRDM9^Cst ZnF1-11 (Mus musculus castaneus (CAST/EiJ strain)); assay: native gel or EMSA; multimer assay II as a2, with the semipure (ion-exchange) Halo-tagged construct; the shifted band was shown by MALDI-TOF mass spectrometry to hold mainly PRDM9 peptides
[10] = biological target: MBP-ZnF-Cst (Mus musculus castaneus (CAST/EiJ)) (UniProt Q96EQ9); assay: EMSA; conditions: 10 mM Tris pH 7.5, 50 mM KCl, 50 uM ZnCl2, 0.05% NP-40 (1x TKZN), usually 50 ng/ul polydIdC, 60 min at RT, 5% native PAGE in 0.5x TBE
[11] = biological target: His-eYFP-PRDM9^Cst ZnF1-11 (Mus musculus castaneus (CAST/EiJ strain)); assay: native gel or EMSA; multimer assay II: construct bound to a 75-bp DNA (Hlx1 for PRDM9^Cst, Pbx1 for PRDM9^Dom2), native gel; MW of the lower shift read against a ladder of free DNA (75-740 bp) and divided by the monomer's MW; four replicates; crude bacterial lysates or in vitro expressed protein
[12] = biological target: His-eYFP-PRDM9^Cst ZnF1-11 (Mus musculus castaneus (CAST/EiJ strain)); assay: native gel or EMSA; multimer assay I: construct bound to single-Hlx1 and tandem-Hlx1 DNA fragments of rising length, native 5% polyacrylamide gel; MW of the second complex (supershift) read from the regression of the lower shifts and divided by the monomer's MW; crude bacterial lysates or in vitro expressed protein
[13] = biological target: His-PRDM9^Cst ZnF2–6 (Mus musculus castaneus (CAST/EiJ strain)); assay: native gel or EMSA; multimer assay II: construct bound to a 75-bp DNA (Hlx1 for PRDM9^Cst, Pbx1 for PRDM9^Dom2), native gel; MW of the lower shift read against a ladder of free DNA (75-740 bp) and divided by the monomer's MW; four replicates; crude bacterial lysates or in vitro expressed protein
[14] = biological target: His-PRDM9^Cst ZnF2–6 (Mus musculus castaneus (CAST/EiJ strain)); assay: native gel or EMSA; multimer assay I: construct bound to single-Hlx1 and tandem-Hlx1 DNA fragments of rising length, native 5% polyacrylamide gel; MW of the second complex (supershift) read from the regression of the lower shifts and divided by the monomer's MW; crude bacterial lysates or in vitro expressed protein
[15] = biological target: His-PRDM9^Cst ZnF2-8 (Mus musculus castaneus (CAST/EiJ strain)); assay: native gel or EMSA; multimer assay II: construct bound to a 75-bp DNA (Hlx1 for PRDM9^Cst, Pbx1 for PRDM9^Dom2), native gel; MW of the lower shift read against a ladder of free DNA (75-740 bp) and divided by the monomer's MW; four replicates; crude bacterial lysates or in vitro expressed protein
[16] = biological target: His-PRDM9^Cst ZnF2-8 (Mus musculus castaneus (CAST/EiJ strain)); assay: native gel or EMSA; multimer assay I: construct bound to single-Hlx1 and tandem-Hlx1 DNA fragments of rising length, native 5% polyacrylamide gel; MW of the second complex (supershift) read from the regression of the lower shifts and divided by the monomer's MW; crude bacterial lysates or in vitro expressed protein

His-eYFP-PRDM9^Cst (full-length PRDM9^Cst with KRAB, SSXRD, PR/SET and ZnF domains) (natural protein)
stoichiometry N [1]: 3

His-MBP-eYFP-PRDM9^Dom2 ZnF (domain or fragment)
stoichiometry N [2]: 3

His-MBP-eYFP-PRDM9^Cst ZnF (domain or fragment)
stoichiometry N [3]: 3

His-eYFP-PRDM9^Cst ZnF (domain or fragment)
stoichiometry N [4]: 3

His-eYFP-PRDM9^Cst ZnF2-11 (domain or fragment)
stoichiometry N [5]: 3
stoichiometry N [6]: 2.7

His-PRDM9^Cst ZnF (domain or fragment)
stoichiometry N [7]: 3

His-PRDM9^Cst ZnF1-11 (domain or fragment)
stoichiometry N [8]: 3

His-Halo-PRDM9^Cst ZnF1-11 (domain or fragment)
stoichiometry N [9]: 3

GTGGGAGGAGATGGTGGGTGAATAGTGTGCAGACTTGGACCCTGCCCTTTCTTTACGCATTCCACTAACCATGGG (double strand) [single-Hlx1 75 bp]
Kd ([10]; 60 min incubation): 48 nM

AACCCTGAGCTGCCTAAAGGTCAAATAGTGTGCAGACTTGGACCCTGCCCTTTCTTTAATAGTGTGCAGACTTGGACCCTGCCCTTTCTTTCTGCTGTGAATACCAGAGGCACA (double strand) [tandem-Hlx1 114 bp]
Kd ([10]; sum of lower shift and supershift, two complexes): 35 nM

His-eYFP-PRDM9^Cst ZnF1-11 (domain or fragment)
stoichiometry N [11]: 3.5
stoichiometry N [12]: 3.8

His-PRDM9^Cst ZnF2–6 (domain or fragment)
stoichiometry N [13]: 2.9
stoichiometry N [14]: 2.9

His-PRDM9^Cst ZnF2-8 (domain or fragment)
stoichiometry N [15]: 2.5
stoichiometry N [16]: 2.7
